Reference: article PMC10687090, “The dimerized pentraxin-like domain of the adhesion G protein–coupled receptor 112 (ADGRG4) suggests function in sensing mechanical forces” (The Journal of Biological Chemistry, 2023)

What was measured:
[1] = molecular target: the molecule itself; assay: static light scattering; DynaPro NanoStar, 20 °C, quartz cuvette, several protein concentrations; molecular mass increased with protein concentration; no significant change of hydrodynamic radii and molecular mass in the presence of Ca2+; monomer to dimer
[2] = molecular target: the molecule itself; assay: SAXS; concentration series 0.27-9.15 mg/mL, 3 to 5% glycerol added; KD by nonlinear regression of experimental Rg^2 versus concentration (Equation 4) with theoretical Rg of monomer and dimer for zero to two N-glycosylations; dimer to monomers
[3] = molecular target: the molecule itself; assay: SAXS Guinier Rg, model with 1x N-glycosylation

B1: PTX-like domain of the human ADGRG4 (residues 1-240) (domain or fragment, UniProt Q8IZF6-1 28-240, looked up)
chain: LKGKKLDFFGRGDTYVSLIDTIPELSRFTACIDLVFMDDNSRYWMAFSYITNNALLGREDIDLGLAGDHQQLILYRLGKTFSIRHHLASFQWHTICLIWDGVKGKLELFLNKERILEVTDQPHNLTPHGTLFLGHFLKNESSEVKSMMRSFPGSLYYFQLWDHILENEEFMKCLDGNIVSWEEDVWLVNKIIPTVDRTLRCFVPENMTIQEKS
modifications: N-glycosylated (heterogeneous; putative N-glycosylation sites N166 and N233)
notes: signal peptide in the construct: human ADGRG4 (GPR112) residues 1-240, UniProt Q8IZF6-1; residues 1 to 25 are a signal peptide and are not present in the secreted protein; residues 26-162 and 176-231 are resolved in the crystal structure; Expected monomer mass printed as 30.5 kDa; also called G4-PTX; ADGRG4-PTX
[1]
  stoichiometry N: 2
[2]
  Kd: 7 to 32 µM
[3]
  Kd: 20 µM
